Data reported in publication PMC12654638.

Biological target: carotenoependymin-Purple1 (Cep-Purple1) (Haliclona sp. (purple sponge))
Assay: SEC; HPLC size-exclusion chromatography (TSKgel G3000SWXL), calibrated with molecular standards; native protein estimated at 41-43 kDa against 23 kDa on SDS-PAGE

- stoichiometry N: 2
Substance: carotenoependymin-Purple1 (Cep-Purple1) (natural protein)
